Numbering of substitutions follows the chain as printed.
Key:
mASIC1a-eYFP = biological target: T1, mASIC1a-eYFP (Mus musculus, UniProt Q6NXK8); assay: Species/subtype selectivity, FACS binding and ICC, transfected CHO-K1 cells; format: cell-based
T1 construct: expressed in transfected cells; host or cells: CHO-K1, transient
T1 sequence (Q6NXK8 1-526): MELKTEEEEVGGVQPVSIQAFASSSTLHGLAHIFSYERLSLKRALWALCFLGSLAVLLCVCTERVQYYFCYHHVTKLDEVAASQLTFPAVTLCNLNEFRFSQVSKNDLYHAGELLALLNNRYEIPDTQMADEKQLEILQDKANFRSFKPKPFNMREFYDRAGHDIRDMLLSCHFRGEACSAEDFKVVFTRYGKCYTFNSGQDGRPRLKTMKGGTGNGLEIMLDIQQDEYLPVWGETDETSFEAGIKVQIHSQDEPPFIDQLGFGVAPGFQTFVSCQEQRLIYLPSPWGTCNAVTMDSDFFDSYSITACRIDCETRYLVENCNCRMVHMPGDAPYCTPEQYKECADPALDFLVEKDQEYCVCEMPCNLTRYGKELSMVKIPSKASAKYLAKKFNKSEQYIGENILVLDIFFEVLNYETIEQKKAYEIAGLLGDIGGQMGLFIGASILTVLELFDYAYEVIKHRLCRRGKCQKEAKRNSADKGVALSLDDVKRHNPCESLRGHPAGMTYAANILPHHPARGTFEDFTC
Protocol: (§1) Cell Membrane Colocalization Studies Using Immunocytochemistry (ICC). Cells (CHO-K1) were seeded onto the poly-D-lysine-coated glass bottom 24-well plates at a concentration of 2×10^5 cells per mL. After 12 h of cultivation, the CHO-K1 cells were transfected with ASIC plasmids by Lipofectin 3000 reagent. Twenty-four hours after transfection, the cells were fixed in 4% paraformaldehyde and incubated for 30 min in a blocking solution (5% goat serum in PBS). The resulting cells were incubated with […] ASC06-IgG1 at 4° C. overnight followed by three PBS washes for 5 min each and incubation with the Alexa555-conjugated goat anti-human secondary antibody (Life Technology). After three additional PBS washes for 5 min each, the nuclei of the cells were stained with DAPI (#10236276001; Roche). The ICC analysis was performed on a laser scanning confocal microscopy (ZEISS LSM710) with a 63×N.A. 1.4 objective at 25° C. Images were collected on a 1,024×1,024-pixel EM-CCD camera. Data acquisition and analyses were performed with the ZEN 2012 professional software.
(§2) To test the species and subtype selectivity of ASC06-IgG1, vectors encoding human ASIC1b-eYFP fusion, rat ASIC1a-eYFP fusion, mouse ASIC1a-eYFP fusion, hASIC2a-eYFP fusion, hASIC2b-eYFP fusion, and hASIC3a-eYFP fusion were constructed. The CHO-K1 cells were transiently transfected with these plasmids. FACS binding assay and immunocytochemistry (ICC) were carried out to determine if ASC06-IgG1 is able to bind to the cell surface-expressed ASIC homologs and isotypes.

rASIC1a-eYFP = biological target: T2, rASIC1a-eYFP (Rattus norvegicus, UniProt P55926); assay: as above; format: cell-based
T2 construct: expressed in transfected cells; host or cells: CHO-K1, transient
T2 sequence (P55926 1-526): T1 sequence (Q6NXK8 1-526) with N476S
Protocol: as §1, §2

[1] = test system: primary cortical neurons from the ASIC1a KO mice (ASIC1a−/−); assay: ICC staining of primary cortical neurons from ASIC1a KO mice; format: cell-based, mouse
Protocol: Cell Culture. The CHO-K1 cell line (#CRL-9618; ATCC) was maintained in an F-12k media (#21127022; Gibco) containing 10% (vol/vol) FBS (#1600074; Gibco), whereas the FreeStyle 293F (#R79007; ThermoFisher Scientific) cell line was cultured in a Freestyle 293 expression media (#12338026; Thermo-Fisher Scientific). Spodoptera frugiperda 9 (Sf9) cells (#12659017; Thermo-Fisher Scientific) was cultured at 27° C. in an ESF921 media (#96-001-01; Expression Systems). Primary cortical neurons dissected from E18-d-old C57 BL/6 mice or ASIC1a^−/− mice were maintained in a Neurobasal media (#21103049; Gibco) supplemented with B27 (#17504044; Gibco) and Glutamx I (#35050061; Gibco). The CHO-K1/hASIC1a stable cell line overexpressing the full-length hASIC1a (1-528 amino acids) channel was generated as follows: The cDNA of the full-length hASIC1a with a C-terminal eYFP fusion or a C-terminal mCherry fusion was constructed, cloned into a pCDNA3.1-Neo expressing vector, and transfected into the CHO-K1 cells using Lipofectin 2000. The CHO-K1/hASIC1a stable cell line was selected by the antibiotic, geneticin (up to 1 mg/mL), and validated by the fused fluorescence proteins eYFP (λex=488 nm; λem=528 nm) or mCherry fluorescence (λex=587 nm; λem=610 nm) using flow cytometry. Over 80% positive cells survived when cultured in the presence of 200 µg/mL geneticin for 30 days. […]

B1: ASC06-IgG1: ASC06 antibody converted into a full length IgG1 form (antibody, V domains shown)
VH: QVQLQQSGGGLVQPGGSLRLSCAASGFTFSSYAMSWVRQAPGKGLEWVSAISGSGGSTYYADSVKGRFTISRDNSKNTLYLQMNSLRAEDTAVYYCAKDSFYGYSKGDWGQGTLVTVSS
VL: QSALTQPASVSGSPGQSITISCTGTSSDVGAYNYVSWYQQQPGKAPKLMIYGVSNRPSGVSNRFSGSKSGNAASLTISGLQAEDEADYYCSSYTSSSTYVFGTGTKLTVLG
FACS recognition of mouse ASIC1a (mASIC1a-eYFP; FACS): recognized | ICC membrane co-localization with mASIC1a-eYFP (mASIC1a-eYFP; ICC staining): membrane co-localization | FACS recognition of rat ASIC1a (rASIC1a-eYFP; FACS): recognized | ICC membrane co-localization with rASIC1a-eYFP (rASIC1a-eYFP; ICC staining): membrane co-localization | binding to KO neurons transfected with hASIC1a-mCherry ([1]; transfected with hASIC1a-mCherry): binding occurs in the postsynaptic dendrites | binding to primary neurons from the KO mice ([1]; untransfected ASIC1a−/− neurons): no apparent binding
